Laboratory results reported in US20090291088A1, “THERAPEUTIC COMBINATIONS OF ANTI-IGF-1R ANTIBODIES AND OTHER COMPOUNDS” (Biogen Idec MA Inc., priority 2008, published 2009).

B1: Fab M12-E01: human anti-human IGF-1R Fab from phage display library; VH SEQ ID NO:4, VL SEQ ID NO:68 (antibody, V domains shown)
VH: EVQLLESGGGLVQPGGSLRLSCAASGFTFSPYSMLWVRQAPGKGLEWVSSIGSSGGSTRYADSVKGRFTISRDNSKNTLYLQMNSLRAEDTAMYYCARVRGILHYDILIGRNLYYYYMDVWGKGTTVTVSS
VL: QYELTQPPSVSEAPRQRVTISCSGSSSNIGNNAINWYQQLPGKPPKLLIYYDDLLPSGVSDRFSGSKSGTSGSLAISGLQSEDEADYYCAAWDDNLNGVIFGGGTKLTVL
modifications: Antibody variable heavy chain sequence; Antibody variable light chain sequence
B2: M14-C03: anti-IGF-1R antibody, allosteric blocker of IGF-1 and IGF-2 (antibody, V domains shown)
VH: EVQLLESGGGLVQPGGSLRLSCAASGFTFSKYMMSWVRQAPGKGLEWVSYISPSGGLTWYADSVKGRFTISRDNSKNTLYLQMNSLRAEDTAVYYCARDGARGYGMDVWGQGTTVTVSS
VL: DIQMTQSPATLSLSPGERATLSCRASQSVSSYLAWYQQKPGQAPRLLIYDASNRATGIPARFSGSGSGTDFTLTISSLEPEDFAVYYCQQRSNWPPEVTFGPGTKVDIK
modifications: Antibody variable heavy chain sequence; Antibody variable light chain sequence
B3: 20C8.3B8: murine anti-human IGF-1R monoclonal antibody from hybridoma; VH SEQ ID NO:43, VL SEQ ID NO:103 (antibody, V domains shown)
VH: DVQLQESGPDLVKPSQSLSLTCTVTGYSITSGYSWHWIRQFPGNKLEWMGYIHYSGGTNYNPSLKSRISITRDTSKNQFFLQLNSVTTEDTATYYCARSGYGYRSAYYFDYWGQGTTVTVSS
VL: DIVLTQSPASLAVSLGQRATISCRASKSVSTSAYSYMHWYQQKPGQPPKLLIYLASNLESGVPARFSGSGSGTDFTLNIHPVEEEDAATYYCQHSRELPYTFGGGTKLEIK
modifications: Antibody variable heavy chain sequence; Antibody variable light chain sequence
B4: 20D8.24B11: murine anti-human IGF-1R monoclonal antibody from hybridoma; VH SEQ ID NO:53, VL SEQ ID NO:103 (antibody, V domains shown)
VH: DVQLQESGPDLVKPSQSLSLTCTVTGYSITSGYSWHWIRQFPGNKLEWMGYIHYSGGTNYNPSLKSRISITRDTSKNQFFLQLNSVTTEDTATYYCARSGYGYRSAYYFDYWGQGTTLTVSS
VL: DIVLTQSPASLAVSLGQRATISCRASKSVSTSAYSYMHWYQQKPGQPPKLLIYLASNLESGVPARFSGSGSGTDFTLNIHPVEEEDAATYYCQHSRELPYTFGGGTKLEIK
modifications: Antibody variable heavy chain sequence; Antibody variable light chain sequence

Assays:
IGF-1R = molecular target: T1, IGF-1R (Homo sapiens, UniProt P08069); assay: Ligand blocking assay (RIA): 125I-IGF-1 / 125I-IGF-2 binding to immobilized IGF-1R
T1 construct: human IGF-1R(1-903)-Fc (denoted hIGF-1R-Fc, generated by Biogen Idec)
Method in brief: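 Recombinant His-tagged IGF-1R or IGF-1R-Fc coated at 250 ng/well (or IGF-1R-Fc captured via anti-human IgG); antibody or Fab preincubated 45 min at room temperature, then 100,000 cpm [125I]rhIGF-1 or rhIGF-2 added for 1 h. Bound radioactivity gamma-counted; % inhibition relative to buffer-only wells.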

Panc-1 = assay: IGF driven tumor cell growth, CELL TITER-GLO, Panc-1; type: cell-based, human; details: pancreatic cancer cell
Description: (§1) NCI-H23, Calu-6, Colo-205, Panc-1, BxPC-3 (ATCC) tumor lines were purchased from ATCC. Cell lines were grown in complete growth medium containing RPMI-1640 (ATCC), 10% fetal bovine serum (Irvine Scientific Inc.) and 50 μg/ml of Gentamycin (Gibco, Invitrogen). Trypsin-EDTA solution (Sigma) was used for removal of adherent cells from culture vessels. Phosphate buffered saline, pH 7.2, was from MediaTech Inc The 96-well clear bottom plates for luminescent assay was purchased from Wallac Inc.
(§2) Cells grown to 80% monolayers were, trypsinized, washed, resuspended and plated into 96-well plates in 200 μl of 2% growth medium at 8×10^3 cells/well for NCI-H23 and Colo-205 cells; and 5×10^3 cells/well for Calu-6, Panc-1 and BxPC-3 cells. After 24 hours, the culture medium was replaced with 100 μl of serum free medium (SFM), and 50 μl of serially diluted antibodies at 4× concentration was added. […] All treatments were done in triplicates. Cell growth was measured using the CELL TITER-GLO™ Luminescent Cell Viability Assay (Promega, Madison, Wis.). The 1:1 mixture of reagent and SFM was added at 200 μl/well. Luminescence was detected on Wallac (Boston, Mass.) plate reader.
(§3) The ability of the selected murine antibodies to inhibit IGF/IGF-1R dependent in vitro growth of several human tumor lines (Lung, H-23, Calu-6; Pancreas, BxPc-3, Panc-1, MiaPaCa and Colon Colo205) was measured by a proliferation assay described in Example 13.

MCF-7 = assay: Ki67 inhibition in MCF-7 cells; type: cell-based, human; details: breast cancer cell
Colo-205 = assay: IGF driven tumor cell growth, CELL TITER-GLO, Colo-205; type: cell-based, human; details: colon cancer cell
Description: as §1, §2, §3

Row | Molecule | IGF Blocking IGF-2 (IGF-1R; Fabs, 125I-IGF-2) | IGF Blocking IGF-1 (IGF-1R; murine monoclonal antibodies) | IGF Blocking IGF-2 (IGF-1R; murine monoclonal antibodies) | Proliferation of Tumor Cells Panc-1 (Panc-1) | Proliferation of Tumor Cells MCF-7* (Ki67 Inhibit.) (MCF-7) | Proliferation of Tumor Cells Colo-205 (Colo-205)
1 | B1 | ++ (>30%@1ug/ml) |  |  |  |  | 
2 | B2 | + (>30%@10ug/ml) |  |  |  |  | 
3 | B3 |  | +++ (>40%@0.1 μg/ml) | +++ (>40%@0.1 μg/ml) | +++ (>30%@0.1 μg/ml) | +++ (>50%@0.1 μg/ml) | +++ (>30%@0.1 μg/ml)
4 | B4 |  | +++ (>40%@0.1 μg/ml) | +++ (>40%@0.1 μg/ml) | +++ (>30%@0.1 μg/ml) | ++ (>50%@1 μg/ml) | +++ (>30%@0.1 μg/ml)
